First the molecules themselves.
B1: CL-442127 (antibody, V domains shown)
VH: QAQLVESGGGVVQPGKSLRLSCAASRFTFRNYGMHWVRQGPVKGLEWVALIWHDGSNKFYSDSVRDRFTISRDNSKNKLFLQMNSLTADDTALYYCVRSNYDGSGTYGWFGPWGQGTLVTVSS
VL: EIVLTQSPGTLSLSPGERATLSCRASQSVISNYLAWYQQKPGQAPRLLIYGASTRDIGIPDRFSGSGSGTDFTLTISRLEPEDFAVYFCHQYGSSFTFGPGTKVDFK
modifications: peptides N-terminally acetylated and C-terminally amidated
B2: Ky15.10 (antibody, V domains shown)
VH: QVQLVESGGGVVQPGRSLRLSCAASGFTFSNSGMHWVRQVPGKGLEWVAIIWYDGSNKYYADSVKGRFSVSRDNSENTLYLQMSNLRAEDTAVYYCVRAYFDSENLYDYYGMDVWGQGTTVTVSS
VL: DIQMTQSPSTLSASVGDRVTITCRASQSISRWLAWFQKKPGKAPKLLIYTASNLESGVPSRFSGSGSGTEFTLTISSLQPDDFATYYCQQYYNYWTFGQGTKVEVK
modifications: peptides N-terminally acetylated and C-terminally amidated
B3: CL-512564 (antibody, V domains shown)
VH: QVQLVESGGGVVQPGRSLRLSCAASGFTFSNSGMHWVRQAPGKGLEWVAIIWYDGSHKFYADSVKGRFTISRDNSKNTLYLQMNSLRIEDTAMYYCVRSYNWNYPVRGDYKYGMDVWGQGTTVTVSS
VL: DIQMTQSPSTLSASVGDRVTITCRASQSISSWLAWFQQKPGKAPNLLIYMASSLQSGVPSRFSGSGSGTEFTLTISSLQPDDFATYYCQQFNTYWTFGQGTKVEIK
modifications: peptides N-terminally acetylated and C-terminally amidated
B4: CL-444424 (antibody, V domains shown)
VH: QVQLVESGGGVVQPGRSLRLSCTASGFTFSNYGMHWIRQAPGKGLEWVAIIWFDGSSQYYADSVKGRFTISRDNSKNTLYLQMNSLRAEDTAVYYCVRALYDSGSLFDFWGLGTLVTVSS
VL: DIQMTQSPSTLSASVGDRVTITCRASQNISSLLAWYQQKPGKAPKLLIYKASSLESGVPSRFSGNGSGTEFTLTVSSLQPDDFATYSCLQYNNYWTFGQGTKVEIK
modifications: peptides N-terminally acetylated and C-terminally amidated
B5: CL-531969 (antibody, V domains shown)
VH: QVQLVESGGGVVQPGRSLRLSCAASGFTFSSSGMHWVRQAPGMGLEWVAIIWYDGSNKFYADSVKGRFTISRDNSKNTLYLQMNSLRAEDTAVYYCARAYVSGNYGDNYGMDVWGQGTTVTVSS
VL: DIQMTQSPSTLSASVGDRVTITCRASQSISSWLAWFQQKPGKAPKLLIYKASSLESGVPSRFSGSGSGTEFTLTINSLQPDDFATYFCQQYNYYWTFGQGTKVEIK
modifications: peptides N-terminally acetylated and C-terminally amidated
B6: CL-512870 (antibody, V domains shown)
VH: QVQLVESGGGVVQPGRSLRLSCEASGFTFSHYGMHWVRQAPGRGLEWVAIIWYDGSNTYYRDSVKGRFTISRDNSKDTLFLQMNSLRPDDTAVYYCARALYYDSGSLFDFWGQGTLVTVSS
VL: DIQMTQSPSTLSASVGDRVTITCRASQSISSWLAWYQQKPGKAPKLLIYKASSLETGVPSRFSGSGFGTEFTLSISSLQPDDFATYYCLQYNIYWTFGQGTKVEIK
modifications: peptides N-terminally acetylated and C-terminally amidated
B7: CL-510416 (antibody, V domains shown)
VH: QVQLVESGGGVVQPGRSLRLSCEASGFTFSNYGMHWVRQGPGKGLEWVALMWYDGSNKYYSDSVKGRFTISRDNSKSTLYLQMNSLRAEDTAVYYCARPITGNTHSKYTMDVWGQGTTVTVSS
VL: DIQMTQSPSTLSASVGDRVTITCRASQSISSWLAWYQQKPGKAPKLLIYKASTLESGVPSRFSGSGSGTEFTLTISSLQPDDFATYFCQQYNSYWTFGQGTKVEIK
modifications: peptides N-terminally acetylated and C-terminally amidated
B8: CL-513274 (antibody, V domains shown)
VH: QVQLVESGGGVVQPGRSLRVSCAASGFTFSNYGMYWVRQAPGKGLEWVALIWHDGSNKFYEDSVKGRFTISRDNSKNTLYLQMNSLRAEDTAVYYCARAGYFQGSGSFLDYWGQGTLVTVSS
VL: DIQMTQSPSTLSASVGDRVTITCRASQSISTWLAWYQQKPGKAPKLLIYKASSLESGVPSRFSGSGSGTEFTLTISSLQPDDFATYFCQQYSSYWTFGQGTKVEIK
modifications: peptides N-terminally acetylated and C-terminally amidated
B9: CL-513701 (antibody, V domains shown)
VH: QVQLVESGGGVVQTGRSLRLSCTASGFIFSNYGMYWVRQAPGKGLEWVALIWYDGSNKYYVDSVKGRFTISRDNSKNTLYLQMNSLRAEDTAVYYCARAGKYSGSGSYLDSWGQGTLVTVSS
VL: DIQMTQSPSSVSASVGDRVTITCRASQGISSWLAWYQQKPGKAPKLLIYTASSLQSGVPSRFSGSGSGTDFTLTISSLQPDDFATYFCQQYSRYWTFGQGTKVEIK
modifications: peptides N-terminally acetylated and C-terminally amidated
B10: CL-509940 (antibody, V domains shown)
VH: QVQLVESGGGVVQPGRSLRLSCAASGFTFSTYGMHWVRQAPGKGLEWVAVIWYDGSIKFYADSVKGRFTISRDDSKNTLYLQMNSLRAEDTAVYYCARDGGYSDSGRFGWFDPWGQGNLVTVSS
VL: EIVMTQSPVTLSVSPGERVTLSCRASQSVSSNLAWYQQKPGQAPRLLIYGASNRATGIPDRFSGSGSGTEFSLTVTSLQSEDFAVYYCQQYNQWRTFGQGTKVEIR
modifications: peptides N-terminally acetylated and C-terminally amidated
B11: CL-511771 (antibody, V domains shown)
VH: QVQLVESGGGVVQPGRSLRLSCAASGFTFSNSGMHWVRQAPGKGLEWVAIIWYDGSNKYYAESMKGRFTISRDNSKNTLYLQMNSLRAEDTAVYYCARDGTTNAFDLWGQGTMVTVSP
VL: not shown
modifications: peptides N-terminally acetylated and C-terminally amidated
B12: CL-510484 (antibody, V domains shown)
VH: QVQLVESGGGVVQPGRSLRLSCAASGFTFSNYGMNWVRQAPGKGLEWMAVIWYDGSNKYYGDSVKGRFTISRDNSKNTLYLQMISLRAEDTAVYFCAKSGEFYGSGSHFDYWGQGTLVTVSS
VL: not shown
modifications: peptides N-terminally acetylated and C-terminally amidated
B13: CL-444906 (antibody, V domains shown)
VH: QVQLVESGGGVVQPGRSLRLSCTASGFTFSTYGMHWVRQAPGKGLEWVAIIWYDGSNKFYADSVKGRFTISRDNSKDTLYLQMNSLRAEDTAIYYCARAWDKVDDKYGMDVWGQGTTVTVSS
VL: not shown
modifications: peptides N-terminally acetylated and C-terminally amidated
B14: CL-440422 (antibody, V domains shown)
VH: QVQLVESGGGVVQPGRSLRLSCAASGFTFSNFGMHWVRQTPDRGLEWVAIIWFDGSNTFYTDSVKGRFTISRDNYMNTLYLQMNSLRAEDTAVYYCARSFYSDSAGSLFDYWGQGTLVTVSS
VL: DIQMTQSPSTLSASVGDRVTITCRASQNINNWVAWYQQKPGKAPKLLIYKASDLETGVPSRFSGSGSGTEFTLTISGLQPDDFATFYCLQNNHYWTFGQGTKVEIK
modifications: peptides N-terminally acetylated and C-terminally amidated
B15: CL-512296 (antibody, V domains shown)
VH: QVQLVESGGGVVQPGRSLRLSCAASGFTFSNYGMHWVRQAPGKGLEWVAVIWYDGSKKFYADSVMGRFTISRDNSKNTLVLQMNSLGAEDTAVYYCARDRGYSGYVFDYWGQGTLVTVSS
VL: QSALTQPASVSGSPGQSIAISCTGTSSDVGGYNFVSWYRHHPGKAPKLMIYDVSNRPSGVSNRFSGSKSGNTASLTISGLQAEDEADYYCCSYAGSCSVFGGGTKLTVL
modifications: peptides N-terminally acetylated and C-terminally amidated
B16: CL-512206 (antibody, V domains shown)
VH: QVQLVESGGGVVQPGRSLRLSCAASGFTFSHYGMHWVRQAPGKGLEWVAVIWYDGNNKFYADSVKGRFTISRDNSNNTLYLQMNSLRAEDTAVYHCVRERTGATSRGFDFWGQGTLVTVSS
VL: QSVLTQPPSVSAAPGQKVTISCSGSDSNIEKYYVSWYQQLPGSAPKLLIYDNNKRPSGIPDRFSGSKSGTSATLGITGLQTGDEAVYYCGTWDSSLSTGVFGGGTKLTVL
modifications: peptides N-terminally acetylated and C-terminally amidated

PfCSP full length, sequence (P19597 20-375): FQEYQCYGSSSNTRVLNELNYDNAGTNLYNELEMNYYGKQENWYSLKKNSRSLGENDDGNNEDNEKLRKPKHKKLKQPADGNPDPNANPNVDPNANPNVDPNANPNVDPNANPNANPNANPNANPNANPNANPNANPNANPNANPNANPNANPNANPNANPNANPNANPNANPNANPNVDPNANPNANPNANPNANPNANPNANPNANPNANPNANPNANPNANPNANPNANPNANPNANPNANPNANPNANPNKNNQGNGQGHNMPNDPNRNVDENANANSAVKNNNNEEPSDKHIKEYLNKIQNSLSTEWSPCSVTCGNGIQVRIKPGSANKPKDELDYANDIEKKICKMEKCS

This assay has as its target PfCSP full length (Plasmodium falciparum (isolate NF54), UniProt P19597). The assay is described as follows: ELISA AUC. On the technique in general: An ELISA detects its analyte on a solid surface through an enzyme-linked reagent.
In turn, B1 showed a binding score of 2.3. Then B2, with 2.17. For B3, the binding score came to 2.14.

As to B4, the binding score is 2.3.

Turning to B5, the binding score is 2.5. In turn, B6 had a binding score of 2.23. Then B7, with 2.57; and B8, with 2.23. Then B9, with 2.54; and B10, with 2.09. The molecule B11 came in with a binding score of 2.64. Then B12, with 2.03; and B13, with 2.6. Take B14: the binding score worked out at 2.5. For B15, the binding score worked out at 1.86. As for B16, the figure is 1.86.
